Reference: PMC8373891
Values belong to the binder of their own block, whether it stands above or below them.

Molecular target: T1, IFNAR1/IFNAR2 receptor (human (endogenous in HEK293)) (UniProt P17181)
T1 sequence 1: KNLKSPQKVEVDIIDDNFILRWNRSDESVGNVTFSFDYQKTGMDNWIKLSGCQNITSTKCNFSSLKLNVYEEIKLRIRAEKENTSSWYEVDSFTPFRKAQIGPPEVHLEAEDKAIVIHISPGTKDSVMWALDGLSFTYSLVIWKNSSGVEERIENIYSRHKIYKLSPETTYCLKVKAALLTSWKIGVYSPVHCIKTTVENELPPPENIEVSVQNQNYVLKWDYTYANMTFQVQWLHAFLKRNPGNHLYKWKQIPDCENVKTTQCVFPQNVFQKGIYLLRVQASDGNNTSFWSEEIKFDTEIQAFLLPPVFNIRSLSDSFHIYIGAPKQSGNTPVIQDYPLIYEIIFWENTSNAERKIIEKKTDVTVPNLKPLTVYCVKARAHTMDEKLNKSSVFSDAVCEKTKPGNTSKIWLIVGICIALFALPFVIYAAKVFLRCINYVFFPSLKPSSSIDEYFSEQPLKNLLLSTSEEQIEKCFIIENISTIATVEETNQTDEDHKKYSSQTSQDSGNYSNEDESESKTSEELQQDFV
T1 sequence 2: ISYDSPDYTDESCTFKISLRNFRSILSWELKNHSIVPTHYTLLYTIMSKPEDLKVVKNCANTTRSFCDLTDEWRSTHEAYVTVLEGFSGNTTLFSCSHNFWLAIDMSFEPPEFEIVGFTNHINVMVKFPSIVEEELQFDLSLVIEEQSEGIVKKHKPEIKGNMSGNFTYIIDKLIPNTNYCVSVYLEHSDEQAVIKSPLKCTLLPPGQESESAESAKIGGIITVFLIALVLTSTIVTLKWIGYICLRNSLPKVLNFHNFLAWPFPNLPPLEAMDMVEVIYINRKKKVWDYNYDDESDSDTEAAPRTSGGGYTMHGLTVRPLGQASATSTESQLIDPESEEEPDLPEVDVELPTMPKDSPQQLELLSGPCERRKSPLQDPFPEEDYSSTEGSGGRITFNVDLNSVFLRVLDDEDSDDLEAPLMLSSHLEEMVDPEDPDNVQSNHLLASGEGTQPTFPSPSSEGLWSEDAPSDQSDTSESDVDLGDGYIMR

EC50 of ISG54-driven secreted embryonic alkaline phosphatase in the HEK293 (HEK-BLUE IFN-αβ) reporter cell line, dose response, 24 h: 0.3 nM
B1: IFNα-10 (ligand)
chain: CDLPQTHSLGNRRALILLGQMGRISPFSCLKDRHDFRIPQEEFDGNQFQKAQAISVLHEMIQQTFNLFSTEDSSAAWEQSLLEKFSTELYQQLNDLEACVIQEVGVEETPLMNEDSILAVRKYFQRITLYLIERKYSPCAWEVVRAEIMRSLSFSTNLQKRLRRKD

EC50 of ISG54-driven secreted embryonic alkaline phosphatase in the HEK293 (HEK-BLUE IFN-αβ) reporter cell line, dose response, 24 h: 3.3 nM
B2: IFNα-7 (ligand)
chain: CDLPQTHSLRNRRALILLAQMGRISPFSCLKDRHEFRFPEEEFDGHQFQKTQAISVLHEMIQQTFNLFSTEDSSAAWEQSLLEKFSTELYQQLNDLEACVIQEVGVEETPLMNEDFILAVRKYFQRITLYLMEKKYSPCAWEVVRAEIMRSFSFSTNLKKGLRRKD
